We go through nine substances from publication PMC2190830.

The assay has as its target human high affinity Fc gamma receptor, Fc gamma RI (human) (UniProt P12314). Kind of assay: enzymatic cell-binding assay.
Sequence of UniProt P12314 (P12314 16-374): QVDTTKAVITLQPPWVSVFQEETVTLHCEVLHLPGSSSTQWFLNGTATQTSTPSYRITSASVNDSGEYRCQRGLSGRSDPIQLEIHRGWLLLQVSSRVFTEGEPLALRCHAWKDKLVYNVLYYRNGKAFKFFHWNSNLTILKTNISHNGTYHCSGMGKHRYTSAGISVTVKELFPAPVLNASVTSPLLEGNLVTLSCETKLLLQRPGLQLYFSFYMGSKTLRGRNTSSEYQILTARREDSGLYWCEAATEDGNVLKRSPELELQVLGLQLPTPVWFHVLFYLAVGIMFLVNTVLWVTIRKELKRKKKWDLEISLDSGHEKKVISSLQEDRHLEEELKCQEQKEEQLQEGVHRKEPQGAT
“exon-exchange chimeric anti-dansyl IgG 2232 (IgG2 with a gamma 3 CH2 domain) (antibody)” registered a Ka of 2.8e+08 M⁻¹.

For “exon-exchange chimeric anti-dansyl IgG 3332 (IgG3 bearing the CH3 domain of IgG2) (antibody)”, the Ka was found to be 1.8e+09 M⁻¹.

The substance “chimeric anti-dansyl IgG3 bearing a hinge encoded by the first (unique) gamma 3 hinge exon (IgG3h1) (antibody)” returned a Ka of 2.2e+08 M⁻¹.

On to “chimeric anti-dansyl IgG4(Leu[234], Pro[331]) (antibody)”, for which the Ka was found to be 1.3e+08 M⁻¹.

“CH1-deleted chimeric anti-dansyl IgG3 (IgG3 ΔCH1) (antibody)”: the Ka was found to be 2e+08 M⁻¹.

“chimeric anti-dansyl IgG4(Leu[234]) (antibody)” displayed a Ka of 3.8e+08 M⁻¹.

“chimeric anti-dansyl IgG4 (murine variable regions, human IgG4 constant region, human kappa light chain) (antibody)”: the fold reduction in binding activity relative to IgG1 and IgG3 was 10 fold.

Substance “chimeric anti-dansyl IgG3 (murine variable regions, human IgG3 constant region, human kappa light chain) (antibody)” yielded a Ka of 1.2e+09 M⁻¹.

Take “chimeric anti-dansyl IgG3(Ser[331]) (antibody)”: the Ka is 3.1e+08 M⁻¹.
